Measured values reported in paper PMC4106346, “The Oligomeric States of the Purified Sigma-1 Receptor Are Stabilized by Ligands” (The Journal of Biological Chemistry, 2014).

Molecular target: GpA G83I
Experiment: TOXCAT
Conditions: parent: est. 100; read off a plot

glycophorin A transmembrane control of the TOXCAT assay G83I
response: 6.3 %GpA
